In patent publication US20250215412A1 (NOVOZYMES A S, published 2025) one finds Relative activity of maturated deamidase (% initial rate) and Leakage activity data, which are given here for one molecule.

Common to all, as to experiment: cell-based or functional assay
For assay [1], the target named is T1, Chryseobacterium sp-62563 deamidase Q130L (Chryseobacterium sp-62563).
T1 sequence: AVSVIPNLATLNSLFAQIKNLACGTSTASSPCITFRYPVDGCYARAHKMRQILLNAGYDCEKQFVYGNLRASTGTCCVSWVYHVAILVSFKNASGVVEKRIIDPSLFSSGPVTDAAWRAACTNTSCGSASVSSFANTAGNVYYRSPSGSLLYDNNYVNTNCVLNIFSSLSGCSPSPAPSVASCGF

The target of assay [2] is T2, Chryseobacterium sp-62563 deamidase Q126D (Chryseobacterium sp-62563).
T2 sequence: T1 sequence with Q17D, L21Q

For assay [3], the target named is T3, Chryseobacterium sp-62563 deamidase Q126E (Chryseobacterium sp-62563).
T3 sequence: T1 sequence with Q17E, L21Q

Assay [4] has as its target T4, Chryseobacterium sp-62563 deamidase Q130K (Chryseobacterium sp-62563).
T4 sequence: T1 sequence with L21K

Assay [5] concerns the target T5, Chryseobacterium sp-62563 deamidase Q130N (Chryseobacterium sp-62563).
T5 sequence: T1 sequence with L21N

Assay [6] has as its target T6, Chryseobacterium sp-62563 deamidase Q172I (Chryseobacterium sp-62563).
T6 sequence: T1 sequence with L21Q, Q63I

The target in assay [7] is T7, Chryseobacterium sp-62563 deamidase Q126N (Chryseobacterium sp-62563).
T7 sequence: T1 sequence with Q17N, L21Q

In assay [8] the target is T8, Chryseobacterium sp-62563 deamidase Q172V (Chryseobacterium sp-62563).
T8 sequence: T1 sequence with L21Q, Q63V

The target of assay [9] is T9, Chryseobacterium sp-62563 deamidase C230H (Chryseobacterium sp-62563).
T9 sequence: T1 sequence with L21Q, C121H

Assay [10] has as its target T10, Chryseobacterium sp-62563 deamidase Q160D (Chryseobacterium sp-62563).
T10 sequence: T1 sequence with L21Q, Q51D

Positions count from the first letter of the chain named. Names may count otherwise.

B1: Chryseobacterium sp-62563 propeptide F99A (protein)
chain: NQDPNLVAKESNETAMKDFGKTVPVGIEKEDGKFKISFMVTAQPYEIKDSKENAAYISMIKTAVENETPIHVFLKANTNEIAKVDKATDDDIRYFKSVATKEVKEENRK
For B1, the Relative activity of maturated deamidase (% initial rate) in assay [1] was over 100; in [2], 99; in [3], over 100; in [4], 92; in assay [5] it was 79; in assay [6] it was 31. Moreover, the values for the Relative activity of maturated deamidase (% initial rate) in [7], in [8] and in [10] were over 100, 66 and over 100, respectively. In addition, the Leakage activity in [5] and in assay [9] was 0% each time.
